# B1: humanized 12A11 antibody, version 1 (antibody, V domains shown)
# VH: QVQLVESGGGVVQPGRSLRLSCAFSGFSLSTSGMSVGWIRQAPGKGLEWLAHIWWDDDKYYNPSLKSRLTISKDTSKNTVYLQMNSLRAEDTAVYYCARRTTTADYFAYWGQGTTVTVSS
# VL: DVVMTQSPLSLPVTPGEPASISCRSSQSIVHSNGNTYLEWYLQKPGQSPQLLIYKVSNRFSGVPDRFSGSGSGTDFTLKISRVEAEDVGVYYCFQSSHVPLTFGQGTKLEIK
# Key:
# [1] = target: Aβ peptide (bio-DAE peptide); assay: Biacore (data not shown); the immobilised Aβ antigen is not given
# [2] = target: aggregated synthetic Aβ1-42 (human) (UniProt P05067); assay: competition Aβ1-42 ELISA; competitor biotin-conjugated m12A11Cγ2a at a fixed concentration
binder,measurement,setting,value
B1,Kd,[1],23 nM
same,fold of IC50 against murine and chimeric 12A11,[2],< 2 fold

# From JP2012050437A
